Test results from publication PMC8770391 (Biosensors & Bioelectronics, 2022).
Residue numbers refer to the chain shown, from its start.

B1: detection antibody against the SARS-CoV-2 antigen (antibody, V domains shown)
VH: EVQLVESGGGLVQPGGSLRLSCAASGFTFSTYAMSWVRQAPGKGLEWVSGITGSGGATDYADSVKGRFTISRDNSKNTLYLQMNSLRAEDTAVYYCARINYRAVWGMDYWGQGTLVTVSS
VL: DIQMTQSPSSLSASVGDRVTITCRASQNVSSYLAWYQQKPGKAPKLLIYGASNLASGVPSRFSGSGSGTDFTLTISSLQPEDFATYYCQQGANAPLTFGQGTKVETK
B2: reporter antibody against the SARS-CoV-2 antigen (antibody, V domains shown)
VH: EVQLVESGGGLVQPGGSLRLSCAASGFTFANNAMSWVRQAPGKGLEWVSGINGYDGDTYYADSVKGRFTISRDNSKNTLYLQMNSLRAEDTAVYYCARTYYSYAMDYWGQGTLVTVSS
VL: B1 VL with V29I, G50W, N93Q, A94I, T106I

Molecular target: SARS-CoV-2 antigen (nucleocapsid protein) (SARS-CoV-2; strain of the recombinant …, UniProt P0DTC9)
Assay: ELISA

Binder	Kd
B1	0.66 nM
B2	0.69 nM
